Changes are numbered by the printed parent chain.

B1: monoclonal antibody 25E6 (antibody, V domains shown)
VH: EVQLVESGGDLVKPGGSLKLSCAASGFTFSSYGMSWVRQTPDKRLEWVATISNGGRHTFYPDSVKGRFTISRDNAKNTLYLQMSSLKSEDTAMYLCVRQTGTEGWFAYWGQGTLVTVSA
VL: not shown
notes: Raised against PSMGFR; also called MN25E6; anti-PSMGFR antibody 25E6
B2: N-10 peptide (peptide)
peptide: QFNQYKTEAASRYNLTISDVSVSDVPFPFSAQSGA
notes: also called PSMGFR N-10; PSMGFR minus 10 amino acids from the N-terminus
B3: monoclonal antibody H11 (antibody, V domains shown)
VH: EVVLVESGGGLVEPGGSLKLSCVASGFAFSTFAMSWIRQTPEKRLEWVAAISNGGGYTYYPDTLKGRFTISRDNAKNTLYLQMSSLRSEDTAVYYCARRYYDLYFDLWGQGTSLIVSS
VL: DILMTQTPLSLPVSLGDQASISCRSSQNIVHSNGNTYLEWYLQKPGQSPKLLIYKVSNRFSGVPDRFSGSGSGTDFTLKISRVEAEDLGVYYCFQDSHVPLTFGAGTRLELK
notes: Raised against PSMGFR
B4: monoclonal antibody 5C6F3 (antibody, V domains shown)
VH: EVMLVESGGGLVKPGGSLKLSCAASGFTFSTYAMSWVRQTPEKRLEWVAAISNGGGYTYYPDSLKGRFTISRDNAKNTLYLQMSSLRSEDTATYYCARRYYDHYFDYWGQGTALTVSS
VL: B3 VL with I2V, N28T, R108K
notes: Raised against PSMGFR; also called MN5C6F3; anti-PSMGFR antibody 5C6F3
B5: humanized MNC3 scFv-Fc (Fc fusion)
VH: QVQLVQSGAEVKKPGASVKVSCKASGYTFTDYAMNWVRQAPGQGLEWMGVISTFSGNTNFNQKFKGRVTMTTDTSTSTAYMELRSLRSDDTAVYYCARSDYYGPYFDYWGQGTTLTVSS
VL: DIVMTQTPLSLSVTPGQPASISCRSSQTIVHSNGNTYLEWYLQKPGQSPQLLIYKVSNRFSGVPDRFSGSGSGTDFTLKISRVEAEDVGVYYCFQGSHVPFTFGGGTKVEIKRT
B6: monoclonal antibody 45C11 (antibody, V domains shown)
VH: EVQLQQSGADLVKPGASVKLSCTASGFNIKDTFMHWVKQRPEQGLEWIGRIDPANGNTKYDPKFQGKATITADTSSNTAYLQLSSLTSEDTAVYYCAKPYGNYGYYYALDYWGQGTSVTVSS
VL: DVQITQSPSYLAASPGETITINCRASKSISKYLAWYQEKPGKTNKLLIYSGSTLQSGIPSRFSGSGSGTDFTLTISSLEPEDFAMYYCQQHNEFPWTFGGGTKLEIK
notes: Raised against the N+20/C-27 peptide; also called N+20/C-27 antibody 45C11
B7: mouse monoclonal antibody MNC2 (antibody, V domains shown)
VH: EVQLEESGGGLVKPGGSLKLSCAASGFTFSGYAMSWVRQTPEKRLEWVATISSGGTYIYYPDSVKGRFTISRDNAKNTLYLQMSSLRSEDTAMYYCARLGGDNYYEYFDVWGAGTTVTVSS
VL: DIVITQSTASLGVSLGQRATISCRASKSVSTSGYSYMHWYQQRPGQPPKLLIYLASNLESGVPARFSGSGSGTDFTLNIHPVEEEDAATYYCQHSRELPFTFGGGTKLEIKR
notes: Mouse monoclonal raised against the PSMGFR peptide; also called Min-C2; MNC2-scFv (label in some tissue legends)

For one experiment, the target named is T1, N+9/C-9 peptide.
T1 peptide: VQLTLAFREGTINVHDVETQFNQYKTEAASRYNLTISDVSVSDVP
The experiment can be described thus: ELISA, peptide on plate (FIG. 64). Background: An ELISA detects its analyte on a solid surface through an enzyme-linked reagent.

For experiment [1], the target named is T2, PSMGFR peptide.
T2 construct: also called MUC1* peptide
T2 peptide: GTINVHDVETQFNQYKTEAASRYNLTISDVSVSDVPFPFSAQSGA
As to the kind of experiment: peptide ELISA, told in tissue legend.

In experiment [2] the target is B2. The experiment can be described thus: peptide ELISA, told in tissue legend.
The target in experiment [3] is T3, MUC1* expressed on HCT-116 cells transfected with MUC1* (extra cellular domain is just the PSMGFR sequence) (Homo sapiens (Human), UniProt P15941 1110-1255).
T3 construct: In Western blot rows the same protein stood denatured in cell lysate; also called HCT-MUC1*; HCT-FLR
T3 sequence: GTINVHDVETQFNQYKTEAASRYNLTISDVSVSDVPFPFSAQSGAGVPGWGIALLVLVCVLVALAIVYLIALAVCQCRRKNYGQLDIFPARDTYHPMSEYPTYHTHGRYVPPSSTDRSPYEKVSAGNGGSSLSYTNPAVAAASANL
As to the kind of experiment: denaturing Western blot of cell lysates (FIG. 72). The method, then: Antibodies were tested to determine whether they recognize a linear or a conformational epitope. Only antibodies that recognize a linear epitope work in Western blots when using denaturing gels. […] The antibodies tested for comparison are MNC2 and MNE6, which were known to only recognize a conformational epitope, SDIX which is a polyclonal antibody raised against PSMGFR and VU4H5, which is a commercially available monoclonal antibody that recognizes the tandem repeats of full-length MUC1 (FIG. 71A-71D). […] The SDIX polyclonal antibody recognizes HCT-MUC1* but not full-length MUC1 and VU4H5 only recognizes full-length MUC1. These same antibodies were also tested for their ability to work in Western blots of two breast cancer cell lines 1500, aka Zr-75-1, and T47D cells and show the same binding pattern (FIG. 71E-71H).
(§1) Antibodies that were raised against the PSMGFR peptide were tested the same way in Western blots (FIG. 72A-72P). […] Antibodies that were raised against the N+20/C-27 peptide were tested the same way in Western blots (FIG. 73A-73J). […] Antibodies 1E4 and 45C11 may recognize a conformational epitope. Antibodies that were raised against the N+9/C-9 peptide were tested the same way in Western blots (FIG. 74A-74H). […] These antibodies may recognize a conformational epitope.

For the next experiment, the target named is T4, NME7AB (Homo sapiens (Human), UniProt Q9Y5B8 92-376).
T4 construct: NME7A in the text appears to be NME7AB; also called NM23-H7; NME7A
T4 sequence: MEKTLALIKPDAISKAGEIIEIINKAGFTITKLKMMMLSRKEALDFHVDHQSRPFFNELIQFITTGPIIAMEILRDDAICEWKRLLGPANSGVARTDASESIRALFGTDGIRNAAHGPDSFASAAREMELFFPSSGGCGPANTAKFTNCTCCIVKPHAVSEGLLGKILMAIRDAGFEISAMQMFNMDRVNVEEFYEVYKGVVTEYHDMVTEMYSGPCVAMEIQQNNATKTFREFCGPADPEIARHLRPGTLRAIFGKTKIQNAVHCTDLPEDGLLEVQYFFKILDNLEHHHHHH
The experiment can be described thus: ELISA, peptide on plate (FIG. 2A-2D).

The target of experiment [4] is T5, C-10 peptide.
T5 construct: also called PSMGFR C-10; PSMGFR minus 10 amino acids from the C-terminus
T5 peptide: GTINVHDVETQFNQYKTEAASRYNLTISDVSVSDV
As to the kind of experiment: ELISA, peptide on plate (FIG. 201).

Experiment [5] concerns the target T2, PSMGFR peptide. The experiment can be described thus: ELISA, peptide on plate (FIG. 201A). Here is the method:
(§2) FIG. 201A-201C show graphs of ELISA assays to determine the binding of another set of antibodies generated by immunizing animals with the PSMGFR peptide. […] F3, B12, B2, B7, B9, 8C7F3 and H11 all bound to the PSMGFR peptide and to the N-10 peptide.
(§3) This same ELISA assay was performed on the antibodies of the invention (FIGS. 64-66 and FIG. 201). Note that only 20A10 exactly matches the binding profile of MNC2 and MNE6. 25E6, 28F9 and 18G12 are all able to bind to the N-10 peptide. 18B4 is the only antibody raised against the PSMGFR peptide that requires the 10 most N-terminal amino acids of the peptide. The color of the bars for each antibody in the ELISA graph are color coded to match the deductive cognate sequence, or a portion thereof, of that antibody. In addition, another set of antibodies was assayed by ELISA (FIG. 201). Of this set, B12, B2, B7, B9, 8C7F3, and H11 bound to the PSMGFR peptide, bound to the N-10 peptide, but not to the C-10 peptide (FIG. 201). Although these antibodies were raised against the N+20/C-27 peptide, all but one, 45C11, still bind to the PSMGFR peptide, albeit at the N-terminal portion of PSMGFR.

Experiment [6] addresses B2. As to the kind of experiment: ELISA, peptide on plate (FIG. 201B). Here is the method:
as §2, §3

Experiment [7] addresses T2, PSMGFR peptide. The experiment can be described thus: peptide ELISA.
Experiment [8] concerns the target B2. As to the kind of experiment: peptide ELISA.
The target of experiment [9] is T3, MUC1* expressed on HCT-116 cells …. The experiment can be described thus: denaturing Western blot of cell lysates, longer exposure (FIG. 72G, 72H, 72O, 72P).
From the text: All these antibodies were raised against the PSMGFR peptide and bind to the PSMGFR peptide. […] FIG. 72A and FIG. 72I show 20A10. FIG. 72B and FIG. 72J show 25E6. FIG. 72C and FIG. 72K show 18B4. FIG. 72D and FIG. 72L show 18G12. FIG. 72E and FIG. 72M show 28F9. FIG. 72F and FIG. 72N show 3C2B1. FIG. 72G and FIG. 72O show 5C6F3. FIG. 72H and FIG. 72P show 5C6F3 wherein the blot has been exposed for a longer time period to render more visible the MUC1* specific bands.
as §1
(In general: Immunoblotting shows a protein as a band on a membrane.)

Experiment [10] deals with T2, PSMGFR peptide. As to the kind of experiment: ELISA, peptide on plate (FIG. 9).
Experiment [11] concerns the target B2. The experiment can be described thus: ELISA, peptide on plate (FIG. 9).
Experiment [12] concerns the target T5, C-10 peptide. As to the kind of experiment: ELISA, peptide on plate (FIG. 9).
Experiment [13] concerns the target T2, PSMGFR peptide. As to the kind of experiment: ELISA, peptide on plate (FIG. 65).
Experiment [14] concerns the target T2, PSMGFR peptide. The experiment can be described thus: ELISA, peptide on plate (FIG. 2B). The method, then:
FIGS. 2A-2I show results of ELISA assays. MUC1* peptides PSMGFR, PSMGFR minus 10 amino acids from the N-terminus aka N-10, or PSMGFR minus 10 amino acids from the C-terminus, aka C-10 are immobilized on the plate and the following are assayed for binding: NME7-AB (FIG. 2A), MNC2 monoclonal antibody (FIG. 2B), MNE6 monoclonal antibody (FIG. 2C), or dimeric NME1 (FIG. 2D). […] MUC1* peptides PSMGFR minus 10 amino acids from the N-terminus aka N-10, or PSMGFR minus 10 amino acids from the C-terminus, aka C-10, are immobilized on the plate and the following are assayed for binding: MNC3 (FIG. 2E) and MNC8 (FIG. 2F).

The next experiment deals with T6, N+20/C-27 peptide.
T6 peptide: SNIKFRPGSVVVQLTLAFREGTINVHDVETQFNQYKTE
As to the kind of experiment: ELISA, peptide on plate (FIG. 63). The method, then:
ELISA assays were performed to determine if, in addition to recognizing their immunizing peptide, they recognized PSMGFR, N-10 or C-10. In addition, they were tested for their ability to bind to N+20/C-27, N+9/C-9. We first did the ELISA assay on our set of reference antibodies, MNC2, MNE6, which we know are cancer-specific plus MNC3, which we know recognizes stem cells and progenitor cells (FIG. 63A-63B). None of the reference antibodies bound to the N+20/C-27 peptide. MNC2 and MNE6 cannot bind to PSMGFR peptides with 27, 10 or 9 C-terminal deletions, however, MNC3 binds to C-10 and to N+9/C-9 peptides.

For experiment [15], the target named is T5, C-10 peptide. The experiment can be described thus: ELISA, peptide on plate (FIG. 64).
Experiment [16] addresses B2. As to the kind of experiment: ELISA, peptide on plate (FIG. 2B-2C).
For experiment [17], the target named is T3, MUC1* expressed on HCT-116 cells …. As to the kind of experiment: flow cytometry, HCT-116 cells transfected with MUC1* (FIG. 35B).

Regarding B1, the binding result (with N+9/C-9 peptide; with PSMGFR peptide [1]; with N-10 peptide [2]; in experiment [3]) was “binds” throughout.

Consider B2, for which the binding result in the experiment with NME7AB was “binds”.

Regarding B3, the results for the binding result with C-10 peptide [4], with PSMGFR peptide [5] and with N-10 peptide [6] were “no binding”, “binds” and “binds”, respectively.

With B4, the binding result (with PSMGFR peptide [7]; with N-10 peptide [8]; in [9]) was “binds” throughout.

Consider B5, for which the binding result with PSMGFR peptide [10], in the experiment with N-10 peptide [11] and in the experiment with C-10 peptide [12] was “binds” each time.

As for B6, the binding result with N-10 peptide [8] and with PSMGFR peptide [13] was “no binding” throughout.

With B7, the binding result was “binds” in the experiment with PSMGFR peptide [14]; “no binding” with N+20/C-27 peptide; “no binding” in the experiment with C-10 peptide [15]; “no binding” in the experiment with N+9/C-9 peptide; “binds” with N-10 peptide [16]; “binds” in experiment [17].

The values are drawn from patent US20240390418A1 (MINERVA BIOTECHNOLOGIES, published 2024).
